Data published in EP4745157A1 (Korea Research Institute of Bioscience and Biotechnology, dated 2026).

Experiments:
[1] = target: T1, TM4SF5-Fc antigen protein (UniProt O14894); assay: Biacore, TM4SF5-Fc immobilized directly on the chip
T1 sequence (looked up): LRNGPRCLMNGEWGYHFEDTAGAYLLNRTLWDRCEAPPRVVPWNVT

[2] = target: T2, hEC2-Fc-myc antigen (human) (UniProt O14894); assay: Octet (BLI), IgG against hEC2-Fc-myc
T2 sequence (looked up): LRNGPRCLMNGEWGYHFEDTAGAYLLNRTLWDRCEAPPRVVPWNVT

[3] = target: T3, TM4SF5 (antigen of SPR/BIACORE/ELISA, construct not stated) (UniProt O14894 112-157, limits assumed); assay: SPR
T3 construct: also called TM4SF5 target
T3 chain (looked up): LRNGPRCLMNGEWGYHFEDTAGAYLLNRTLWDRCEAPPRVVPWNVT

[4] = target: T4, TM4SF5 (antigen of SPR/BIACORE/ELISA, construct not stated) (UniProt O14894); assay: BIACORE
T4 sequence (looked up): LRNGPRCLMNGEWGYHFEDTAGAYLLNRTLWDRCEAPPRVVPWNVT

[5] = target: T2, hEC2-Fc-myc antigen (human); assay: ELISA, IgG against hEC2-Fc-myc
[6] = target: T4, TM4SF5 (antigen of SPR/BIACORE/ELISA, construct not stated); assay: SPR

B1: huAb27-9_E01 IgG (antibody, V domains shown)
VH: EVQLVQSGADVKEPGASVKVSCKASGYTFTDYEMHWVRQAPGQGLEWMGAIDPETGGTAYNQKFKGWVTMTADKSISTAYMELSRLRSDDTAVYYCTRPYLGYWGQGTLVTVSS
VL: EIVLTQSPGMLSLSPGERATLSCRSSQSLVHRNGNTYLHWYQQKPGQAPRLLIYKVSNRFSGIPDRFSGSGSGTDFTLTISRLEPEDFAVYYCFQGSHIPLTFGQGTKVEIKR
fold improvement of antigen-binding affinity against parent huAb27-9 [1]: 3 fold

B2: 1-5 IgG (antibody, V domains shown)
VH: QVQLVQSGAEVKKPGASVKVSCKASGYTFTDYEMHWVRQAPGQGLEWMGAIDPETGGTFVKRKFKGRVTMTADKSISTAYMELSRLRSDDTAVYYCARPYLGYWGQGTLVTVSS
VL: EIVLTQSPGTLSLSPGERATLSCRSSQSLVHSNGNTYLHWYQQKPGQAPRLLIYKVSNRFSGIPDRFSGSGSGTDFTLTISRLEPEDFAVYYCFQGSHIPLTFGQGTKVEIK
notes: IgG; also called T1-5
fold improvement of KD relative to huAb27-9 [2]: 7.7 fold | Kd [3]: 3.94 nM | fold improvement of KD against chimeric Ab27 [3]: ~4 fold | fold improvement of KD against humanized Ab27-hz9 [3]: ~2.4 fold

B3: S43 (G2) (antibody, V domains shown, not shown: a dimerising Fc or GST)
VH: QVQLVQSGAEVKKPGASVKVSCKASGYRFTDYEMHWVRQAPGQGLEWMGAIDPAFGGTAYNQKFKGRVTMTADKSISTAYMELSRLRSDDTAVYYCARPYLGYWGQGTLVTVSS
VL: EIVLTQSPGTLSLSPGERATLSCRSSQSLVHSNGNTYLHWYQQKPGQAPRLLIYKVSNRFSGIPDRFSGSGSGTDFTLTISRLEPEDFAVYYCFQGSHIPLTFGQGTKVEIKG
fold reduction in affinity against S43 [4]: 1.5 fold

B4: EO1 H(G)L(GG) (antibody, V domains shown, not shown: a dimerising Fc or GST)
VH: EVQLVQSGADVKEPGASVKVSCKASGYTFTDYEMHWVRQAPGQGLEWMGAIDPETGGTAYNQKFKGWVTMTADKSISTAYMELSRLRSDDTAVYYCTRPYLGYWGQGTLVTVSS
VL: EIVLTQSPGMLSLSPGERATLSCRSSQSLVHRNGNTYLHWYQQKPGQAPRLLIYKVSNRFSGIPDRFSGSGSGTDFTLTISRLEPEDFAVYYCFQGSHIPLTFGQGTKVEIKG
fold improvement in affinity against EO1 [4]: 2 fold

B5: 2-1 IgG (antibody, V domains shown)
VH: QVQLVQSGAEVKKPGASVKVSCKASGYTFTDYEMHWVRQAPGQGLEWMGAIDPETGGTFVVSKFKGRVTMTADKSISTAYMELSRLRSDDTAVYYCARPYLGYWGQGTLVTVSS
VL: EIVLTQSPGTLSLSPGERATLSCRSSQSLVHSNGNTYLHWYQQKPGQAPRLLIYKVSNRFSGIPDRFSGSGSGTDFTLTISRLEPEDFAVYYCFQGSHIPLTFGQGTKVEIK
fold improvement of EC50 relative to huAb27-9 [5]: 41.4 fold | fold improvement of KD relative to huAb27-9 [2]: 12.6 fold

B6: huAb27-9 scFv-Fc (Fc fusion, part only; not given: linker, domain order, hinge-Fc, not shown: another chain or arm of the molecule; a dimerising Fc or GST; small tags and cut ends)
VH: QVQLVQSGAEVKKPGASVKVSCKASGYTFTDYEMHWVRQAPGQGLEWMGAIDPETGGTAYNQKFKGRVTMTADKSISTAYMELSRLRSDDTAVYYCARPYLGYWGQGTLVTVSS
VL: EIVLTQSPGTLSLSPGERATLSCRSSQSLVHSNGNTYLHWYQQKPGQAPRLLIYKVSNRFSGIPDRFSGSGSGTDFTLTISRLEPEDFAVYYCFQGSHIPLTFGQGTKVEIK
Kd [6]: 7.23 nM | fold difference in affinity against Ab27 scFv-Fc [6]: 1.4 fold

B7: S43 IgG (antibody, V domains shown)
VH: QVQLVQSGAEVKKPGASVKVSCKASGYRFTDYEMHWVRQAPGQGLEWMGAIDPAFGGTAYNQKFKGRVTMTADKSISTAYMELSRLRSDDTAVYYCARPYLGYWGQGTLVTVSS
VL: EIVLTQSPGTLSLSPGERATLSCRSSQSLVHSNGNTYLHWYQQKPGQAPRLLIYKVSNRFSGIPDRFSGSGSGTDFTLTISRLEPEDFAVYYCFQGSHIPLTFGQGTKVEIK
notes: IgG1; also called huAb27-9_M74; M74
Kd [3]: 4.19 nM | fold improvement of KD against chimeric Ab27 [3]: ~4 fold | fold improvement of KD against humanized Ab27-hz9 [3]: ~2.4 fold

B8: huAb27-9 IgG (antibody, V domains shown)
VH: QVQLVQSGAEVKKPGASVKVSCKASGYTFTDYEMHWVRQAPGQGLEWMGAIDPETGGTAYNQKFKGRVTMTADKSISTAYMELSRLRSDDTAVYYCARPYLGYWGQGTLVTVSS
VL: EIVLTQSPGTLSLSPGERATLSCRSSQSLVHSNGNTYLHWYQQKPGQAPRLLIYKVSNRFSGIPDRFSGSGSGTDFTLTISRLEPEDFAVYYCFQGSHIPLTFGQGTKVEIKR
notes: IgG1 format; also called Hz#9 IgG; Hz #9 IgG
Kd [3]: 9.46 nM
